Results from FireProtDB (doi:10.1002/pro.342).

B1: Regulatory protein rop, P03051 (parent)
chain: MTKQEKTALNMARFIRSQTLTLLEKLNELDADEQADICESLHDHADELYRSCLARFGDDGENL

Variants of: B1
Settings: Escherichia coli, pH 6.3, CD, Phosphate 50 mM, NaCl 300 mM, structure 1ROP, whole UniProt chain shown; for Tm / change of melting temperature, mutant - wild type (higher = more stable) / heat capacity change of unfolding / unfolding enthalpy (van 't Hoff): Thermal

Row | Variant | Tm | change of melting temperature, mutant - wild type (higher = more stable) | heat capacity change of unfolding | unfolding enthalpy (van 't Hoff) | ddG of mutation (higher = less stable) (Urea) | denaturant m value (Urea) | denaturant midpoint (higher = more stable) (Urea) | unfolding free energy (Urea)
1 | C38A C52A | 56 °C | -14 °C | 1.1 kcal/mol/K | 65 kcal/mol | 8.3 kcal/mol | 0.9 kcal/mol/M | 2.3 M | 7.7 kcal/mol
2 | C38A C52V | 74 °C | 4 °C | 1.1 kcal/mol/K | 65 kcal/mol |  | 1.3 kcal/mol/M | 4.1 M | 11 kcal/mol
